Measured values reported in US8192734B2, “Compositions and methods for bone strengthening” (Cornell University, priority 2007, dated 2012).

Experiments:
[1] = system: pigs fed P-adequate corn-soybean meal basal diet; assay: Expt 2: femur geometrical and strength properties; assay type: in vivo, pig
Procedure: A three-point bending test was conducted on the dissected bones to generate load-deformation curves with an Instron Model 5566 (Norwood, Mass.). Mechanical properties of bones were calculated using formula as previously described^(29). Bone cross sections were cut at the mid-point of loading and used to determine area moment of inertia. Cross sections were submersed for 5 min in a 0.4 mol/L sodium hypochlorite solution to remove periosteum and marrow tissue, and then embedded in blue clay (Play-Doh, Hasbro, Pawtucket, R.I.) to prevent depth-of-field distortions and to enhance contrasts. The embedded sections were scanned with a flat-bed scanner (Epson Perfection Model 3490, Long Beach, Calif.) and analyzed using Image J software (30) to measure the x-y coordinates of bone pixels.

[2] = system: weanling pigs fed high P diet; assay: Examples 4-8: femoral and metacarpal mechanical properties, dimensions, cortical thickness; assay type: in vivo, pig; details: 8 wk
Procedure: As in Examples 1-3, the animal protocol was approved by Cornell Animal Care and Use Committee. An 8-week feeding trial was conducted at Cornell University Swine Research Farm. […] Group 2 were fed a corn-soy basal diet (BD)+0.25% inorganic phosphorus (iP, dicalcium phosphate). Group 2 were fed BD+0.35% iP. […] The BD (Table 7) contained adequate levels of all nutrients except for P^(63), and 0.25% iP is the supplementation level recommended by NRC^(24) to meet the P needs of this age of pigs. […] Pigs were housed in an environmentally-controlled barn (20-25° C.; 12-light: 12-dark cycle), and given free access to feed and water.
Growth performance of pigs was monitored at two week intervals. Blood samples of all individual pigs (fasted overnight for 8 h) were collected at initial (week 0) and then bi-weekly from the anterior vena cava using 5-mL heparin syringes to assay for concentrations of plasma iP^(73), Ca and Sr^(63). At the end of experiment, 5 pigs (2 male and 3 female) from each group were killed by electrical stunning and exsanguination. Both left and front right legs from each animal were removed from the body.
After the skin and major muscles were removed, two left legs were subjected to X-ray radiography using a Faxitron machine (Model 43855A; Hewlett Packard, McMinnville, Oreg., USA). Bone radiographs of femur and metacarpals were quantified by the kodac software. The software counted the total number of pixels. Thereafter, the 3rd and 4th metacarpals and femurs were collected to measure length, weight, height, and width after removing the remaining muscle and connective tissue. After the X-ray analysis, the two left legs were used for bone mechanical and mineral testing. Bone mechanical properties were determined by a three-point bending test (ASAE Standard S459 1992) using an Instron 4500 Machine Universal Testing Instrument (Model 1122, Instron, Canton, Mass.) with Instron Series IX Automated Materials Testing System Software (version 4.05). During testing, force was applied to the center of the bone held by supports 2.0 cm apart for metacarpals and 3.3 cm apart for femurs. The crosshead speed was set at 50 mm/min and the sampling rate was at 10 points/sec. The extrinsic parameters (stiffness/slope, maximum load, energy to break, maximum displacement) were derived from the force-displacement curve. Bone breaking strength was calculated with the adjustment of bone weight, and the average strength of the 3rd and 4th metacarpal was used as the metacarpal strength for each pig.
After the above mechanical tests, midshaft sections of both femur and metacarpus were cut and washed with de-ionized water. The cortical thickness of both bones was measured by slide caliper in the midshaft. Cortical and cancellous bones were separated for total ash and mineral analysis. A 3-cm long and 3-mm thick midshaft of femur and 1-cm long and 1.5-mm thick midshaft of metacarpus were used for cortical ash analysis. For cancellous bone, sponge-like bone from 3-cm below the growth plate of femur and 1.5-cm below the growth plate of metacarpus were collected. For ash analysis, bones were oven-dried at 110° C. for 24 h, and incinerated in a muffle furnace at 550° C. for 96 h. Concentrations of individual elements in the ash were measured using inductively coupled argon plasma spectrophotometer (ICAP 61E Trace Analyzer, Thermo Jarell Ash corporation, Franklin, Mass.)^(63), and were expressed on ash basis.

[3] = phytase 2000 U/kg and/or Sr 50 mg/kg, n=6
[4] = 0.35% iP + Sr 50 mg/kg + phytase 3,400 U/kg, P<0.05

B1: Phytase: Escherichia coli AppA2 phytase (OptiPhos, JBS United, Inc.), added to diets at feed mixing; AppA2 is SEQ ID NO: 2 (protein, listed as Escherichia coli)
chain: MKAILIPFLSLLIPLTPQSAFAQSEPELKLESVVIVSRHGVRAPTKATQLMQDVTPDAWPTWPVKLGWLTPRGGELIAYLGHYQRQRLVADGLLAKKGCPQPGQVAIIADVDERTRKTGEAFAAGLAPDCAITVHTQADTSSPDPLFNPLKTGVCQLDNANVTDAILSRAGGSIADFTGHRQTAFRELERVLNFSQLNLCLNREKQDESCSLTQALPSELKVSADNVSLTGAVSLASMLTEIFLLQQAQGMPEPGWGRITDSHQWNTLLSLHNAQFYLLQRTPEVARSRATPLLDLIMAALTPHPPQKQAYGVTLPTSVLFIAGHDTNLANLGGALELNWTLPGQPDNTPPGGELVFERWRRLSDNSQWIQVSLVFQTLQQMRDKTPLSLNTPPGEVKLTLAGCEERNAQGMCSLAGFTQIVNEARIPACSL
enhancement of yield bending moment of femur ([1]; P<0.05): 19% | larger cross-sectional area of femur vs diets without phytase ([1]; P=0.06): 11% | femur Cross-sectional area [1, 3]: 165 mm^2 | femur Cross-sectional radius [1, 3]: 9.0 mm | femur Maximum bending moment [1, 3]: 2263 kg × mm | femur Maximum stress [1, 3]: 4.0 kg/mm^2 | femur Modulus of elasticity [1, 3]: 49 kg/mm^2 | femur Moment of inertia [1, 3]: 5419 mm^4 | femur Strain [1, 3]: 0.06 | femur Yield bending moment [1, 3]: 1507 kg-mm | femur Yield stress [1, 3]: 2.7 kg/mm^2 | greater cortical bone thickness of femur vs 0.35% iP [2, 4]: 32% | greater cortical bone thickness of metacarpus vs 0.35% iP [2, 4]: 7% | greater energy to break of femur vs 0.35% iP [2, 4]: 26% | greater energy to break of metacarpus vs 0.35% iP [2, 4]: 14% | greater maximal load of femur vs 0.35% iP [2, 4]: 38% | greater maximal load of metacarpus vs 0.35% iP [2, 4]: 20% | greater stiffness of femur vs 0.35% iP [2, 4]: 12% | greater stiffness of metacarpus vs 0.35% iP [2, 4]: 8% | femoral Cross-sectional area ([2]; 0.35% iP + phytase 3400 U, n=5): 199.7 mm^2 | femoral Height ([2]; 0.35% iP + phytase 3400 U, n=5): 21.8 mm | femoral Length ([2]; 0.35% iP + phytase 3400 U, n=5): 143.7 mm | femoral Max. Displacement ([2]; 0.35% iP + phytase 3400 U, n=5): 4.9 mm | femoral Weight ([2]; 0.35% iP + phytase 3400 U, n=5): 202.2 g | femoral Width ([2]; 0.35% iP + phytase 3400 U, n=5): 23.3 mm | metacarpal Height ([2]; 0.35% iP + phytase 3400 U, n=5): 14.8 mm | metacarpal Length ([2]; 0.35% iP + phytase 3400 U, n=5): 60.5 mm | metacarpal Max. Displacement ([2]; 0.35% iP + phytase 3400 U, n=5): 8.9 mm | metacarpal Weight ([2]; 0.35% iP + phytase 3400 U, n=5): 19.2 g | metacarpal Width ([2]; 0.35% iP + phytase 3400 U, n=5): 15.0 mm
